Here are results for 5 substances from PMC6873181.

What all share (settings): ligand
Test [1] deals with human IGF-1 receptor (human) (UniProt P08069).
In test [2] the target is human insulin receptor isoform A (human) (UniProt P06213).
Test [3] deals with human IGF-1 receptor (human) (UniProt P08069). This is another data set of the same source.
The target in test [4] is human insulin receptor isoform A (human) (UniProt P06213). The source holds these as a separate data set.
Test [5] shares this target. This is another data set of the same source.
Test [6] deals with human IGF-1 receptor (human) (UniProt P08069). The source holds these as a separate data set.
Test [7] addresses human insulin receptor isoform A (human) (UniProt P06213). The source holds these as a separate data set.
The target in test [8] is human IGF-1 receptor (human) (UniProt P08069). The source holds these as a separate data set.
For test [9], the target named is human insulin receptor isoform A (human) (UniProt P06213). This is another data set of the same source.
In test [10] the target is human IGF-1 receptor (human) (UniProt P08069). This is another data set of the same source.

pKd: −log10 of the molar value. Like-named read-outs stand apart in the source and are kept apart here.

Chain of UniProt P06213 (P06213 other isoform, or with tags, fused parts or gaps): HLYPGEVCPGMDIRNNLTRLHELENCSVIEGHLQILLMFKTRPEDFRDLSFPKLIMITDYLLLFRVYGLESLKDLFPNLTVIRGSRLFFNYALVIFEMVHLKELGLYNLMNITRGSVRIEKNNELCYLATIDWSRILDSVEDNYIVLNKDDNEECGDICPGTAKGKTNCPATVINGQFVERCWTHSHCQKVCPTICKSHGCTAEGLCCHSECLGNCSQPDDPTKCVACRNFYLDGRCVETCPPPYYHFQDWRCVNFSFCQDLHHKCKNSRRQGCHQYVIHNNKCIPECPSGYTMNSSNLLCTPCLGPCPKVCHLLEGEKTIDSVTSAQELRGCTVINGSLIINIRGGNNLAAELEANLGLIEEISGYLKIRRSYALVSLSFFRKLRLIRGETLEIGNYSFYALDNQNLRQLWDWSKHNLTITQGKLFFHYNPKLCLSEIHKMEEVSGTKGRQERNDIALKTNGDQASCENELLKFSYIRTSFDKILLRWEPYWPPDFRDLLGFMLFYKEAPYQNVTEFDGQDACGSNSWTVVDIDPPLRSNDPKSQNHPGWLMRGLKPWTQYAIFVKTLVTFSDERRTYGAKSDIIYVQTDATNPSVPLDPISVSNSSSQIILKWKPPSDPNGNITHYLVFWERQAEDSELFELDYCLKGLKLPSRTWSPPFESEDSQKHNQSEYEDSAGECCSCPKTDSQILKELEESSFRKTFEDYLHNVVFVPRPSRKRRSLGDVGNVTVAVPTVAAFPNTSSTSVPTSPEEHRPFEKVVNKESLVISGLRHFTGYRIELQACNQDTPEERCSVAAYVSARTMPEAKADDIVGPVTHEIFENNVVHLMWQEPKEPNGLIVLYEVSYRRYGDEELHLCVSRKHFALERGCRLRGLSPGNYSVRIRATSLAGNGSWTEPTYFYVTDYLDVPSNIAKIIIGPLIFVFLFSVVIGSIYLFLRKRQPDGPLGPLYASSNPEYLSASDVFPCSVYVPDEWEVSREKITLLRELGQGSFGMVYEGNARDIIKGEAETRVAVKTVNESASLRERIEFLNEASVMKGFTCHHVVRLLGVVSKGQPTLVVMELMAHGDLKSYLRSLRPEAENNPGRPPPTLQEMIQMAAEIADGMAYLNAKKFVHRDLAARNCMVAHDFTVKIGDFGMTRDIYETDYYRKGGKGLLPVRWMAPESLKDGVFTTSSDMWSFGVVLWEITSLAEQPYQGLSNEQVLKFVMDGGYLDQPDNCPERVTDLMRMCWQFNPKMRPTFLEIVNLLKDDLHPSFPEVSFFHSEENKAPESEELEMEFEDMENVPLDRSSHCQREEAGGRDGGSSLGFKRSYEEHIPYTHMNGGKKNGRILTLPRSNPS

In the case of “Asp-57–IGF-2 (from UniProt P01344 49-115)”, the negative logarithm of the Kd (pKd) in test [1] was 9.30; in test [2] it was 8.53.

Regarding “His-50–IGF-2 (from UniProt P01344 49-115)”, the negative-log Kd (pKd) was 8.80 in [3] and 8.68 in test [4].

For “His-53–IGF-2 (from UniProt P01344 49-115)”, the pKd in test [5] is 8.39; in test [6], 8.92.

Regarding “Thr-50–IGF-2 (from UniProt P01344 49-115)”, the pKd in test [7] was 8.57; in test [8], 9.08.

Consider “Val-53–IGF-2 (from UniProt P01344 49-115)”, for which the pKd is 8.54 in test [9] and 8.82 in test [10].

For orientation: pKd means −log10 of the Kd, conventionally taken in molar units. A low value points to a high Kd.
